This note sets out measurements from PMC9351521 (Proceedings of the National Academy of Sciences of the …, 2022).

As a reminder, the stoichiometry N is the number of molecules, sites or subunits per partner or assembly. Usually Kd stands for the concentration at which binding is half-saturated.

Settings in all cases: both partners purified
Assay [1] deals with T1, His-tagged SARS-CoV-2 RBD T332-K529 with Pro-527 omitted (SARS-CoV-2, wild-type RBD (P0DTC2 …)).
T1 construct: also called isolated RBD
Put plainly: crystal structure.

Assay [2] deals with T2, SARS-CoV-2 spike receptor binding domain, His-tagged (T332-K529 with Pro-527 omitted) (SARS-CoV-2, wild-type RBD (P0DTC2 …)).
T2 construct: also called RBD
Put plainly: ITC; […]; iTC200, 25 °C, PBS; […].

Assay [3] concerns the target T1, His-tagged SARS-CoV-2 RBD T332-K529 …. Put plainly: ITC. Background: Isothermal titration calorimetry measures the heat released or taken up as one component is titrated into another.
Assay [4] deals with T2, SARS-CoV-2 spike receptor binding …. Put plainly: ITC; […]; iTC200, 25 °C, PBS; […]. The source holds these as a separate data set.
In assay [5] the target is T3, SARS-CoV-2 spike glycoprotein ectodomain (amino acids 1 to 1,208, RRAR > GSAS, KV > PP, T4 fibritin … (SARS-CoV-2, P0DTC2 sequence with GSAS …, RRAR > GSAS at residues 682 to 685 | KV > PP at residues 986 to 987)).
T3 construct: also called Spike protein; trimeric spike protein
Put plainly: ITC.

In a further assay the target is biotinylated RBD (SARS-CoV-2, wild-type RBD (P0DTC2 …)). Put plainly: SPR; Biacore T200, PBS pH 7.4 with 0.005% P20, 25 °C; […]; 1:1 binding model.
Assay [6] concerns the target biotinylated RBD (wild type) (SARS-CoV-2, wild-type RBD (P0DTC2 …)). Put plainly: SPR; […]; Biacore T200, PBS pH 7.4 with 0.005% P20, 25 °C.
Assay [7] addresses T4, SARS-CoV-2 spike glycoprotein ectodomain (amino acids 1 to 1,208, GSAS, PP, T4 fibritin trimerization domain) (SARS-CoV-2, P0DTC2 sequence with GSAS …, RRAR > GSAS at residues 682 to 685 | KV > PP at residues 986 to 987).
T4 construct: also called trimeric spike protein
Put plainly: ITC; […]; iTC200, 25 °C, PBS; […].

B1: nanobody F2 (VHH)
VHH: QVQLVESGGGLVQAGGSLRLACIASGRTFHSYVMAWFRQAPGKEREFVAAISWSSTPTYYGESVKGRFTISRDNAKNTVYLQMNRLKPEDTAVYFCAADRGESYYYTRPTEYEFWGQGTQVTVSS
Turning to B1, the binding result in assay [1] is “binds”.

B2: H11-A10 (VHH)
VHH: QVQLVESGGGLMQAGGSLRLSCAVSGRTFSTAAMGWFRQAPGKEREFVAAIRWSGGSAYYADSVKGRFTISRDKAKNTVYLQMNSLKYEDTAVYYCAGFSATRSLLSDYATWPYDYWGQGTQVTVSS
For B2, the “stoichiometry N” value in assay [2] was 1.

B3: nanobody H11-A10 (VHH)
VHH: QVQLVESGGGLMQAGGSLRLSCAVSGRTFSTAAMGWFRQAPGKEREFVAAIRWSGGSAYYADSVKGRFTISRDKAKNTVYLQMNSLKYEDTAVYYCAGFSATRSLLSDYATWPYDYWGQGTQVTVSS
As to B3, in assay [3], binding was put at a Kd of 60 ± 4.6 nM and the dH is -19.8 kcal/mol.

B4: H11-H6 (VHH)
VHH: QVQLVESGGGLMQAGGSLRLSCAVSGRTFSTAAMGWFRQAPGKEREFVAAIRWSGGSAYYADSVKGRFTISRDKAKNTVYLQMNSLKYEDTAVYYCAGSKITRSLLSDYATWPYDYWGQGTQVTVSS
On to B4, for which the “stoichiometry N” value in assay [4] stood at 1.

B5: H11-H4 Y104S (VHH)
VHH: QVQLVESGGGLMQAGGSLRLSCAVSGRTFSTAAMGWFRQAPGKEREFVAAIRWSGGSAYYADSVKGRFTISRDKAKNTVYLQMNSLKYEDTAVYYCAQTHYVSSLLSDYATWPYDYWGQGTQVTVSS
As to B5, the “stoichiometry N” value in assay [2] was 1.

B6: nanobody H11-B5 (VHH)
VHH: QVQLVESGGGLMQAGGSLRLSCAVSGRTFSTAAMGWFRQAPGKEREFVAAIRWSGGSAYYADSVKGRFTISRDKAKNTVYLQMNSLKYEDTAVYYCASYQATRSLLSDYATWPYDYWGQGTQVTVSS
In the case of B6, in assay [3], binding was characterised by a dissociation constant (Kd) of 53 ± 5.3 nM and the dH is -16.3 kcal/mol.

B7: nanobody H11-H4 Q98R H100E (D4 hybrid) (VHH)
VHH: QVQLVESGGGLMQAGGSLRLSCAVSGRTFSTAAMGWFRQAPGKEREFVAAIRWSGGSAYYADSVKGRFTISRDKAKNTVYLQMNSLKYEDTAVYYCARTEYVSYLLSDYATWPYDYWGQGTQVTVSS
notes: also called H4-D4 hybrid; hybrid nanobody
B7: the figures for the Kd in assay [5] and in assay [3] were 21 ± 3 nM and 18 ± 1 nM, respectively. The dH in assay [5] was -14.8 kcal/mol; in assay [3], -16.5 kcal/mol. Besides, the t1/2 in the assay with biotinylated RBD was 29 s.

B8: H11-H4 R52A (VHH)
VHH: QVQLVESGGGLMQAGGSLRLSCAVSGRTFSTAAMGWFRQAPGKEREFVAAIAWSGGSAYYADSVKGRFTISRDKAKNTVYLQMNSLKYEDTAVYYCAQTHYVSYLLSDYATWPYDYWGQGTQVTVSS
On to B8, for which the binding result in assay [6] is “no binding (tested: 1 µM)”.

B9: nanobody H11-H6 (VHH)
VHH: QVQLVESGGGLMQAGGSLRLSCAVSGRTFSTAAMGWFRQAPGKEREFVAAIRWSGGSAYYADSVKGRFTISRDKAKNTVYLQMNSLKYEDTAVYYCAGSKITRSLLSDYATWPYDYWGQGTQVTVSS
In the case of B9, in assay [3], the affinity, expressed as Kd, was 57 ± 4.5 nM and the dH is -19.1 kcal/mol.

B10: H11-H4 Q98R H100E (D4 hybrid) (VHH)
VHH: QVQLVESGGGLMQAGGSLRLSCAVSGRTFSTAAMGWFRQAPGKEREFVAAIRWSGGSAYYADSVKGRFTISRDKAKNTVYLQMNSLKYEDTAVYYCARTEYVSYLLSDYATWPYDYWGQGTQVTVSS
Take B10: the “stoichiometry N” value in assay [4] and in assay [7] was 1 each time.

B11: H11-B5 (VHH)
VHH: QVQLVESGGGLMQAGGSLRLSCAVSGRTFSTAAMGWFRQAPGKEREFVAAIRWSGGSAYYADSVKGRFTISRDKAKNTVYLQMNSLKYEDTAVYYCASYQATRSLLSDYATWPYDYWGQGTQVTVSS
As for B11, the “stoichiometry N” value in assay [2] amounted to 1.

B12: nanobody H11 V101Y R103S (VHH)
VHH: QVQLVESGGGLMQAGGSLRLSCAVSGRTFSTAAMGWFRQAPGKEREFVAAIRWSGGSAYYADSVKGRFTISRDKAKNTVYLQMNSLKYEDTAVYYCAQTRYTSSLLSDYATWPYDYWGQGTQVTVSS
notes: also called double mutant A101Y, R103S
With B12, in assay [3], the Kd is 5220 nM and the dH was -11 kcal/mol.

B13: nanobody H11-H4 Y104S (VHH)
VHH: QVQLVESGGGLMQAGGSLRLSCAVSGRTFSTAAMGWFRQAPGKEREFVAAIRWSGGSAYYADSVKGRFTISRDKAKNTVYLQMNSLKYEDTAVYYCAQTHYVSSLLSDYATWPYDYWGQGTQVTVSS
In assay [3], B13 had a Kd of 409 ± 91 nM and a dH of -11 kcal/mol.

B14: H11 V101Y R103S (VHH)
VHH: QVQLVESGGGLMQAGGSLRLSCAVSGRTFSTAAMGWFRQAPGKEREFVAAIRWSGGSAYYADSVKGRFTISRDKAKNTVYLQMNSLKYEDTAVYYCAQTRYTSSLLSDYATWPYDYWGQGTQVTVSS
Consider B14, for which, in assay [2], the “stoichiometry N” value worked out at 1.

B15: H11-H4 R52E (VHH)
VHH: QVQLVESGGGLMQAGGSLRLSCAVSGRTFSTAAMGWFRQAPGKEREFVAAIEWSGGSAYYADSVKGRFTISRDKAKNTVYLQMNSLKYEDTAVYYCAQTHYVSYLLSDYATWPYDYWGQGTQVTVSS
As for B15, the binding result in assay [6] is listed as “no binding (tested: 1 µM)”.

B16: nanobody H11 (VHH)
VHH: QVQLVESGGGLMQAGGSLRLSCAVSGRTFSTAAMGWFRQAPGKEREFVAAIRWSGGSAYYADSVKGRFTISRDKAKNTVYLQMNSLKYEDTAVYYCAQTRVTRSLLSDYATWPYDYWGQGTQVTVSS
notes: also called parent H11; parent nanobody
Take B16: in assay [1], the binding result was “binds”.

B17: H11-H4 R52K (VHH)
VHH: QVQLVESGGGLMQAGGSLRLSCAVSGRTFSTAAMGWFRQAPGKEREFVAAIKWSGGSAYYADSVKGRFTISRDKAKNTVYLQMNSLKYEDTAVYYCAQTHYVSYLLSDYATWPYDYWGQGTQVTVSS
As for B17, in assay [6], the binding result is recorded as “no binding (tested: 1 µM)”.
